Target: T1, mouse ENaC (Mus musculus, UniProt Q61180+Q9WU38+Q9WU39, DEL206-231)
T1 construct: expressed in transfected cells; host or cells: Xenopus laevis oocytes (cRNA injection)
T1 sequence (Q61180 with tags, fused parts or gaps DEL206-231): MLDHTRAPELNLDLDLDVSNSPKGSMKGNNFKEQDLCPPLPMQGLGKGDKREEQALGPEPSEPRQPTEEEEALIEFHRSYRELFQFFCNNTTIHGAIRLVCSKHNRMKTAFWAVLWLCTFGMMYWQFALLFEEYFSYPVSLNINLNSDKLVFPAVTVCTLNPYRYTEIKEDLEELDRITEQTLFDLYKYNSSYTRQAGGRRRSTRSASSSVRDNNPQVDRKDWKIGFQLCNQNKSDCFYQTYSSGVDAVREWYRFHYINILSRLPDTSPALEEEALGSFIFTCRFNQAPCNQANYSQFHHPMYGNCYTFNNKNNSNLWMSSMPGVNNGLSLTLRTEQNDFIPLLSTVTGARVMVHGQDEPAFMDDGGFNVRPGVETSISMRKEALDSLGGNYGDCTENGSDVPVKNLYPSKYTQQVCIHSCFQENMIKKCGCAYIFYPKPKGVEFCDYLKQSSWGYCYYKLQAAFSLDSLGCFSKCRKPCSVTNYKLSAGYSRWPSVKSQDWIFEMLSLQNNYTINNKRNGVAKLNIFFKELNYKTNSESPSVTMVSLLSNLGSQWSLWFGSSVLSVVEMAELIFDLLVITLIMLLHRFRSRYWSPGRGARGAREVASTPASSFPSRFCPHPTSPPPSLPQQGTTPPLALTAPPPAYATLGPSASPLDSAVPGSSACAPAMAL
T1 sequence (Q9WU38 1-638): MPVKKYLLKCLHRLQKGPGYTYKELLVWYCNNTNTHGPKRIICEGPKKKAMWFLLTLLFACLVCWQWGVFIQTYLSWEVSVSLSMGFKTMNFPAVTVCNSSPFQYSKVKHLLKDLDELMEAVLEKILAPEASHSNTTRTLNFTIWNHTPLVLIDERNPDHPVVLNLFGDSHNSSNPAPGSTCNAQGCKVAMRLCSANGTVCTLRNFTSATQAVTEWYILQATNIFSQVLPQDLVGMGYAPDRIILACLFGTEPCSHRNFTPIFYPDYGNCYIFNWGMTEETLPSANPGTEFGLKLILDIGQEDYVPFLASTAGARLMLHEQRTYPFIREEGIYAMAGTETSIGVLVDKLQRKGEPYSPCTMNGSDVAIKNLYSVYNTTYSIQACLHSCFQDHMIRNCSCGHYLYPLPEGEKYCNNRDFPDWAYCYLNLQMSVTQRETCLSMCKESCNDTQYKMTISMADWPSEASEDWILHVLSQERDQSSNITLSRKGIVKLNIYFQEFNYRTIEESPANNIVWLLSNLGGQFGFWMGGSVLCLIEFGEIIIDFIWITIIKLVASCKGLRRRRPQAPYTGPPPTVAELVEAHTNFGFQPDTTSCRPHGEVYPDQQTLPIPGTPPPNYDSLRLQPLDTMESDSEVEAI
T1 sequence (Q9WU39 1-655): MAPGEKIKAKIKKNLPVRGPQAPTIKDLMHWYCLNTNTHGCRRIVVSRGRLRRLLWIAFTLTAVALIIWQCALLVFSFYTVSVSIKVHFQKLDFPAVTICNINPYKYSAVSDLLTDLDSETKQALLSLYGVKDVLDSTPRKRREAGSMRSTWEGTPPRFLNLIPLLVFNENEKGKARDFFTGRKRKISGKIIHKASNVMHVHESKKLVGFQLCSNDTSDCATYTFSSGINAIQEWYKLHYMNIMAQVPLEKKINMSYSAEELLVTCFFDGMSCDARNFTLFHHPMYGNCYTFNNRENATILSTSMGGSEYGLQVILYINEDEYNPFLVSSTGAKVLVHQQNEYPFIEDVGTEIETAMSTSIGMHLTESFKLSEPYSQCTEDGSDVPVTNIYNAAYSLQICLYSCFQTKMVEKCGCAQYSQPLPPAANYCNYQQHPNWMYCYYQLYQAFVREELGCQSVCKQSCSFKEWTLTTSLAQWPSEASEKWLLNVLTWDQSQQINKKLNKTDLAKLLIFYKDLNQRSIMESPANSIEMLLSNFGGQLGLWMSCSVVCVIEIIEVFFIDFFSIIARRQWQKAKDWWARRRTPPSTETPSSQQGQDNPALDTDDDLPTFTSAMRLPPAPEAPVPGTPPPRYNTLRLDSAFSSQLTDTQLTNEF
Assay: Two-electrode voltage clamp, amiloride-sensitive whole cell Na+ current in Xenopus oocytes expressing wild-type αβγ ENaC
Format: cell-based
Settings: peptide 10 μM (FIG. 3B)
Description: Oocyte Expression—cRNAs for α, β, γ mouse ENaC (wild-type and mutant) subunits and mouse prostasin were synthesized with T3 or T7 m-Message mMachineTM (Ambion, Austin, Tex.). Subunits carrying furin cleavage consensus site mutations and the corresponding wild-type subunits have amino-terminal HA and carboxyl-terminal V5 tags (Hughey, R. P., Bruns, J. B., Kinlough, C. L., Harkleroad, K. L., Tong, Q., Carattino, M. D., Johnson, J. P., Stockand, J. D., and Kleyman, T. R. (2004) J. Biol. Chem. 279, 18111-18114 18). Stage V-VI Xenopus laevis oocytes were pretreated with 1.5 mg/ml of type IV collagenase and injected with 0.5-2 ng of cRNA/subunit. Injected oocytes were maintained as previously reported (Carattino, M. D., Hill, W. G., and Kleyman, T. R. (2003), Arachidonic Acid Regulates Surface Expression of Epithelial Sodium Channels, J Biol. Chem. 278, 36202-36213 29).
Two-electrode Voltage Clamp—Two-electrode voltage clamp (TEV) was performed as previously described (Carattino, M. D., Hill, W. G., and Kleyman, T. R. (2003) J Biol. Chem. 278, 36202-36213 29). The extracellular solution (TEV solution) was (in mM): 110 NaCl, 2 KCl, 1.54 CaCl2, 10 HEPES, pH 7.4, or otherwise as indicated. […] Experiments with oocytes co-expressing ENaC and prostasin and the corresponding controls were performed in the presence of aprotinin (1 μM) to impede any potential degradation of α-26 by prostasin.
Data and Statistical Analyses—and mean time of inhibition are expressed as the mean with a 95% confidence interval (CI); otherwise, data were expressed as the mean ±S.E. (n), where “n” equals the number of independent experiments analyzed. IC50 was estimated from normalized currents plotted as a function of the peptide concentration fitted, as shown in Equation 1 y=t/(1+10^(logX−log/C50)) (Eq. 1) where y is the response variable, X is the concentration of peptide, and IC50 is the concentration of peptide that provokes a response half way between the baseline (t) and maximum response. […] Results

Row | Sequence | block of ENaC currents by related peptides
1 | DLEGALPHPLQELETPPPPNPAESAE (Ac-DLEGALPHPLQELETPPPPNPAESAE-NH2) [R/E] | significant reduction in the block
2 | DLRGALAHALQRLRTAAAANAARSAR (Ac-DLRGALAHALQRLRTAAAANAARSAR-NH2) [P/A] | significant reduction in the block

From patent publication US20070149456A1, “Epithelial sodium channel inhibiting agents and uses therefor” (University of Pittsburgh, priority 2005, published 2007)
